B1: CPEB3 Ribozyme (parent)
chain: UAACAGGGGGCCACAGCAGAAGCGUUCACGUCGCAGCCCCUGUCAGAUUCUGGUGAAUCUGCGAAUUCUGCUGUAUAUCUC

Variants of: B1
Assay: self-cleavage, relative activity (ratio to wild type); higher = more cleavage; in vitro, sequencing
In short: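 For each CPEB3 ribozyme variant, relative activity is its cleaved/total read fraction divided by the unmutated ribozyme's. Barcoded error-prone PCR libraries were transcribed by T7 RNA polymerase (5 hours, 37°C) and held in DNase I for 15 min before an EDTA stop, with cleavage occurring throughout. Template-switching reverse transcription and Illumina sequencing were used to read the RNAs. A 5-read minimum applied, and results are the mean of three batches.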
With UAACAGGGGGCCACAGCAAAAGCGUUCACGUCGCAGCCCCUGUCAGAUUCUGGUGAAUUUGCGAAUUCUGCUGUAUAUCUC the self-cleavage was 0.17. UAACAGGGGGCCACAGCAAAAGCGUUCACGUCGCAGCCCCUGUCAGAUUCUAGUGAAUCUGCGAAUUCUGCUGUAUAUCUC showed a self-cleavage of 0.16. Variant UAACAGGGGGCCACAGCAAAAGCGUUCACGUCGCAGCCCCUGUCAGAUUCUGGUGAAUCUGCGAAUUCUGCUGUAUAACUC has a self-cleavage of 0.47. Work on UAACAGGGGGCCACAGCAAAAGCGUUCACGUCGCAGCCCCUGUCAGAUUCUGGCGAAUCUGCGAAUUCUGCUGUAUAUCUC yielded a self-cleavage of 0.23. With UAACAGGGGGCCACAGCAAAAGCGUUCACGUCGCAGCCCCUGUCAGAUUCUGGUGAAUCUGCGAAUUCUGCCGUAUAUCUC the self-cleavage was 0.18. For UAACAGGGGGCCACAGCAAAAGCGUUCACGUCGCAGCCCCUGACAGAUUCUGGUGAAUCUGCGAAUUCUGCUGUAUAUCUC, the self-cleavage was 0.36. In the case of UAACAGGGGGCCACAGCAAAAGCGUUCACGUCGCAGCCCCUGUCAGAUUCUGGUGAAUCUGCGAAUUCAGCUGUAUAUCUC, the self-cleavage is reported as 0.14. With UAACAGGGGGCCACAGCAAAAGCGUUCACGUCGCAGCCCCUGUCAGAUUCUGGUGAAUCUGCGAAUUCCGCUGUAUAUCUC the self-cleavage was 0.13. UAACAGGGGGCCACAGCAAAAGCGCUCACGUCGCAGCCCCUGUCAGAUUCUGGUGAAUCUGCGAAUUCUGCUGUAUAUCUC gave a self-cleavage of 0.13. UAACAGGGGGCCACAGCAAAAGCGAUCACGUCGCAGCCCCUGUCAGAUUCUGGUGAAUCUGCGAAUUCUGCUGUAUAUCUC showed a self-cleavage of 0.28. Variant UAACAGGGGGCCACAGCAAAAGCGUUCACGUCGCAGCCCCUAUCAGAUUCUGGUGAAUCUGCGAAUUCUGCUGUAUAUCUC has a self-cleavage of 0.15. With UAACAGGGGGCCACAGCAAAAGCGUUCACGUCGCAGCCCCUGUCAGAUUCUGGUGAAUCUGCGAAUUCUGCUGUAUAUCCC the self-cleavage was 0.27. Work on UAACAGGGGGCCACAGCAAAAGCGUUCACGUCGCAGCCCCUGUCAGAUUCUGGUGAAUCUGCGAAUUCUGCUGUAUAUCAC yielded a self-cleavage of 0.58. Work on UAACAGGGGGCCACAGCAAAAGCGUUCACGUCGCAGCCCCCGUCAGAUUCUGGUGAAUCUGCGAAUUCUGCUGUAUAUCUC yielded a self-cleavage of 0.22. Variant UAACAGGGGGCCACAGCAAAAGCGUCCACGUCGCAGCCCCUGUCAGAUUCUGGUGAAUCUGCGAAUUCUGCUGUAUAUCUC has a self-cleavage of 0.31. UAACAGGGGGCCACAGCAAAAGCGUUCACGUCGCAGCCCCUGUCAGAUUCUGGUGAAUCUGUGAAUUCUGCUGUAUAUCUC gave a self-cleavage of 0.36. With UAACAGGGGGCCACAGCACUAGCGUUCACGUCGCAGCCCCUGUCAGAUUCUGGUGAAUCUGCGAAUUCUGCUGUAUAUCUC the self-cleavage was 0.4. Variant UAACAGGGGGCCACAGCAAAAGCGUUCACGUCGCAGCCCCUGUCAGAUUCUGGUGAAUCGGCGAAUUCUGCUGUAUAUCUC has a self-cleavage of 0.4. Variant UAACAGGGGGCCACAGCAAAAGCGUUCACGUCGCAGCCCCUGUCAGACUCUGGUGAAUCUGCGAAUUCUGCUGUAUAUCUC has a self-cleavage of 0.16. UAACAGGGGGCCACAGCAAAAGCGUUCACGACGCAGCCCCUGUCAGAUUCUGGUGAAUCUGCGAAUUCUGCUGUAUAUCUC gave a self-cleavage of 0.44. Variant UAACAGGGGGCCACAGCAAAAGCGUUCACGUCGCAGCCCGUGUCAGAUUCUGGUGAAUCUGCGAAUUCUGCUGUAUAUCUC has a self-cleavage of 0.1. For UAACAGGGGGCCACAGCAAAAGCGUUCACGUCGCAGCCCUUGUCAGAUUCUGGUGAAUCUGCGAAUUCUGCUGUAUAUCUC, the self-cleavage was 0.21. In the case of UAACAGGGGGCCACAGCAAAAGCGUUCACGUCGCAGCCCCUGUCAGAUUCUGGUGAAUCUGCGAAUACUGCUGUAUAUCUC, the self-cleavage is reported as 0.07. In the case of UAACAGGGGGCCACAGCAAAAGCGUUCACGUCGCAGCCCCUGUCAGAUUCUGGUGAAUCUGCGAAUCCUGCUGUAUAUCUC, the self-cleavage is reported as 0.17. In the case of UAACAGGGGGCCACAGCAAAAGCGUUCACGUCGCAGCCCCUGUCAGAUCCUGGUGAAUCUGCGAAUUCUGCUGUAUAUCUC, the self-cleavage is reported as 0.1. Work on UAACAGGGGGCCACAGCAAAAGCGUUCACGUCGCAGCCCCUGUCAGAUUCAGGUGAAUCUGCGAAUUCUGCUGUAUAUCUC yielded a self-cleavage of 0.31. UAACAGGGGGCCACAGCAAAAGCGUUCACGUCGCAGCCCCUGUCAGAUUCCGGUGAAUCUGCGAAUUCUGCUGUAUAUCUC showed a self-cleavage of 0.32. With UAACAGGGGGCCACAGCACAAGCGUUCACGUCGCAGCCCCUGUCAGAUUCUGGUGAAUCUGCGAAUUCUGCUGUAUAUCUC the self-cleavage was 0.29. In the case of UAACAGGGGGCCACAGCAAAAGCGUUCACGUCGCAGCCUCUGUCAGAUUCUGGUGAAUCUGCGAAUUCUGCUGUAUAUCUC, the self-cleavage is reported as 0.33. Work on UAACAGGGGGCCACAGCAAAAGCGUUCACGUCGCAGCCACUGUCAGAUUCUGGUGAAUCUGCGAAUUCUGCUGUAUAUCUC yielded a self-cleavage of 0.11. With UAACAGGGGGCCACAGCAAAAGCGUUCACGUCGCAGCCCCUGUCAGAUUCUGGUGAAUCUGCGAAAUCUGCUGUAUAUCUC the self-cleavage was 0.13. For UAACAGGGGGCCACAGCAAAAGCGUUCACGUCGCAGCCCCUGUCAGAUUCUGGUGAAUCUGCGAACUCUGCUGUAUAUCUC, the self-cleavage was 0.44. For UAACAGGGGGCCACAGCAAAAGCGUUCACGUCGCAGCCCCUGUCAGAUUCUGGUGAAUCUGCGAAGUCUGCUGUAUAUCUC, the self-cleavage was 0.51. UAACAGGGGGCCACAGCAAAAGCGUUCACGUCGCACCCCCUGUCAGAUUCUGGUGAAUCUGCGAAUUCUGCUGUAUAUCUC showed a self-cleavage of 0.14.
